The subject of one assay is skin keratin. The experiment in a line: Qualitative binding to skin (adhesive tape keratin layer, Examples 8 and 14). The following applies: transparent adhesive tape with human skin keratin layer; negative control buffer only. As for the experimental part: A visual qualitative test was developed in order to examine whether KBD binds to skin.
Blocking solution: Western Blocking Reagent 1921673 Roche (10× solution) diluted in TBS.
TBS: 20 mM Tris; 150 mM NaCl pH 7.5
The first step is the transfer of the outer keratin layer of the skin to a stable support. For this purpose, a transparent adhesive tape is firmly applied to depilated human skin and removed again. The test can be carried out directly on the transparent adhesive strip, or the adhering keratin layer can be transferred to a glass slide through renewed adhesion.
A visual qualitative test was used in order to examine whether the KBD-D (SEQ ID No.: 168) binds to skin.
Blocking solution: Western Blocking Reagent 1921673 Roche (10× solution) diluted in TBS
A blue colored precipitate, being a reaction of the antipolyhistidine-AP conjugate interacting with the KBD-D, was visible on the transparent adhesive tape treated with KBD-D. As negative control, a transparent adhesive tape was treated only with buffer. No significant blue coloration could be seen here.

A further assay has as its system human keratinocytes. Kind of assay: Quantitative binding to skin (Example 15). How it is done: (§1) In order to investigate the binding strength of the KBD-D (SEQ ID No.:168) to skin and hair compared to the KBD-B (SEQ ID No.:166), a quantitative test was carried out. In this test firstly hair was incubated with KBD-B or KBD-D and excess KBD-D or -D was washed off. An antibody-peroxidase conjugate was then coupled via the His/tag of the KBD-B or -D. Nonbound antibody-peroxidase conjugate was washed off again. The bound antibody-peroxidase conjugate can convert a colorless substrate (TMB) into a colored product, which was measured photometrically at 405 nm. The intensity of the absorption indicates the amount of bound KBD-B or -D.
The test for binding to skin was carried out with human keratinocytes in microtiter plates as follows. • 2× washing with PBS/0.05% Tween 20 • addition of 1 ml of 1% BSA in PBS and incubation for 1 h at room temperature, gentle swinging movements (900 rpm). • removal of the supernatant • addition of 100 μg of KBD in PBS with 0.03% Tween 20; incubation for 2 h at room temperature and gentle swinging movements (900 rpm). • removal of the supernatant • 3× washing with PBS/0.05% Tween 20 • incubation with 1 ml of monoclonal mouse anti-tag-His6 antibodies for 2-4 h at room temperature, gentle swinging movement (900 rpm) • 3× washing with PBS/0.05% Tween 20 • addition of peroxidase substrate (1 ml/Eppendorf vessels composition see below) reaction until a blue coloration (about 90 seconds). • reaction stopped with 100 μl of 2 M H2SO4. • the absorption was measured at 405 nm.
(§2) Peroxidase Substrate (Prepared Shortly Beforehand):
0.1 ml TMB solution (42 mM TMB in DMSO) +10 ml substrate buffer (0.1 M sodium acetate pH 4.9) +14.7 μl H2O2 3% strength

A further assay concerns hair (human). Kind of assay: Quantitative binding to hair (Example 15). As for the experimental part:
as §1
In order to characterize the hair binding of the KBD-D compared to the KBD-B, the following binding assay was carried out:
5 mg of hair (human) were cut into sections 5 mm in length and transferred to Eppendorf vessels (protein low-bind). • addition of 1 ml of ethanol for degreasing • centrifugation, removal of ethanol and washing of the hair with H2O • centrifugation, removal of the supernatant • addition of the keratin-binding domains to be tested (coupled to tag—e.g. His6, HA etc.) in 1 ml of PBS/0.05% Tween 20; incubation for 2 h at room temperature with gentle swinging movements • centrifugation, removal of the supernatant • 3× washing with PBS/0.05% Tween 20 • incubation with 1 ml monoclonal mouse anti-tag-(His6 or HA) antibodies with peroxidase conjugate (1:2000 in PBS/0.05% Tween 20) [Monoclonal AntipolyHistidine Peroxidase Conjugate, produced in mouse, lyophilized powder, Sigma] for 2-4 h at room temperature, gentle swinging movement • 3× washing with PBS/0.05% Tween 20 • addition of peroxidase substrate (1 ml/Eppendorf vessel) • allow reaction to proceed until blue coloration (90 seconds). • stop the reaction with 100 μl of 2 M H2SO4.
The absorption was measured at 405 nm
as §2
0.1 ml TMB solution (42 mM TMB in DMSO) +10 ml substrate buffer (0.1 M sodium acetate pH 4.9) +14.7 μl H2O2 3% strength BSA=bovine serum albumin PBS=phosphate buffered salt solution Tween 20=polyoxyethylene sorbitan monolaureate, n about 20 TMB=3,5,3′,5′-tetramethylbenzidine

The target of assay [1] is human hair keratin (human hair, cut into 5 mm sections) (human). Kind of assay: quantitative hair binding test, anti-polyHis peroxidase conjugate, TMB. As to conditions: scale: absorption at 405 nm, standardized to the surface.
For assay [2] the target is unchanged. Kind of assay: quantitative hair binding test, loss relative to untreated hair after 10% strength SDS treatment.
The target of assay [3] is human skin keratin (human). Kind of assay: quantitative skin binding test, loss relative to untreated skin after 10% strength SDS treatment.
The target in assay [4] is human skin keratin (human). The experiment in a line: quantitative skin binding test (human keratinocytes in microtiter plates), anti-His antibody, TMB. The following applies: scale: absorption at 405 nm, standardized to the surface.
In assay [5] the target is human hair keratin (human hair, cut into 5 mm sections) (human). Kind of assay: quantitative hair binding test, anti-polyHis peroxidase conjugate, TMB; after 10% strength SDS treatment. The following applies: scale: absorption at 405 nm, standardized to the surface.
In assay [6] the target is human skin keratin (human). The experiment in a line: quantitative skin binding test (human keratinocytes in microtiter plates), anti-His antibody, TMB; after 10% strength SDS treatment. As to conditions: scale: absorption at 405 nm, standardized to the surface.
[7] abbreviates: values standardized to the surface, after 10% strength SDS treatment.
Setting [8] is: values standardized to the surface, no SDS treatment.

B1: KBD-D (keratin-binding domain of human plakophilin) with N-terminal histidine anchor (SEQ ID No.: 168) (protein)
chain: MRGSHHHHHHGSACELGTMNHSPLKTALAYECFQDQDNSTLALPSDQKMKTGTSGRQRVQEQVMMTVKRQKSKSSQSSTLSHSNRGSMYDGLADNYNYGTTSRSSYYSKFQAGNGSWGYPIYNGTLKREPDNRRFSSYSQMENWSRHYPRGSCNTTGAGSDICFMQKIKASRSEPDLYCDPRGTLRKGTLGSKGQKTTQNRYSFYSTCSGQKAIKKCPVRPPSCASKQDPVYIPPISCNKDLSFGHSRASSKICSEDIECSGLTIPKAVQYLSSQDEKYQAIGAYYIQHTCFQDESAKQQVYQLGGICKLVDLLRSPNQNVQQAAAGALRNLVFRSTTNKLETRRQNGIREAVSLLRRTGNAEIQKQLTGLLWNLSSTDELKEELIADALPVLADRVIIPFSGWCDGNSNMSREVVDPEVFFNATGCLRNLSSADAGRQTMRNYSGLIDSLMAYVQNCVAASRCDDKSVENCMCVLHNLSYRLDAEVPTRYRQLEYNARNAYTEKSSTGCFSNKSDKMMNNNYDCPLPEEETNPKGSGWLYHSDAIRTYLNLMGKSKKDATLEACAGALQNLTASKGLMSSGMSQLIGLKEKGLPQIARLLQSGNSDVVRSGASLLSNMSRHPLLHRVMGNQVFPEVTRLLTSHTGNTSNSEDILSSACYTVRNLMASQPQLAKQYFSSSMLNNIINLCRSSASPKAAEAARLLLSDMWSSKELQGVLRQQGFDRNMLGTLAGANSLRNFTSRF
Take B1: the “binding to skin keratin (blue colored precipitate)” value in the assay on skin keratin is recorded as “has bound to the skin keratin”. The “Relative absorption loss after 10% strength SDS treatment in %, skin” value in the assay with human keratinocytes (relative to untreated skin) amounted to 15%. Further, the “binding to skin compared with hair (in words)” value with human keratinocytes (summary of Tab. 10) is recorded as “more strongly to skin”. Besides, the “Absorption at 405 nm, binding to skin after 10% strength SDS treatment” value with human keratinocytes (setting [7]) stood at 3.15. The “Absorption at 405 nm, binding to skin” value in the assay with human keratinocytes (setting [8]) was 3.69. Moreover, in the assay with human keratinocytes (washing with an up to 10% strength SDS solution, in contrast to KBD-B), the “influence of washing with SDS solution on binding” value was “only more weakly influenced”. The “Relative absorption loss after 10% strength SDS treatment in %, hair” value in the assay with hair (human) (relative to untreated hair) is recorded as 30%. In addition, in the assay with hair (human) (summary of Tab. 10), the “binding to hair (in words)” value is “can bind to hair”. For the same molecule, the “Absorption at 405 nm, binding to hair after 10% strength SDS treatment” value with hair (human) (setting [7]) came to 0.62. Moreover, the “Absorption at 405 nm, binding to hair” value in the assay with hair (human) (setting [8]) stood at 0.88. For the same molecule, the Absorption at 405 nm in assay [1] worked out at 0.88; in assay [4], 3.69; in assay [5] it was 0.62; in assay [6], 3.15. For the same molecule, the results for the Relative absorption loss after 10% strength SDS treatment in % in [2] and in [3] were 30% and 15%, respectively.

(Values after patent publication US20090098076A1, “Method For the Production of a Keratin-Binding Effector Molecule” (BASF SE, priority 2005, published 2009).)
